As usually defined, the stoichiometry N is the number of molecules, sites or subunits per partner or assembly.

The test addresses T1, Mycobacterium tuberculosis cAMP receptor protein (Rv3676) (Mycobacterium tuberculosis), P9WMH3.
T1 chain: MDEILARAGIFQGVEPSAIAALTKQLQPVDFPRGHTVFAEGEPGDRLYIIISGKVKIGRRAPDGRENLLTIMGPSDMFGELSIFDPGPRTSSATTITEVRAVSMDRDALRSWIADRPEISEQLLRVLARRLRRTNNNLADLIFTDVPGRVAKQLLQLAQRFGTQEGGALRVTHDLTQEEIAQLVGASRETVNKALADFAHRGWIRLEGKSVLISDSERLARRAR
Briefly: cross-linking. As to conditions: remark: other sources report otherwise.

B1: Mycobacterium tuberculosis cAMP receptor protein (Rv3676), P9WMH3 1-224 (natural protein)
chain: MDEILARAGIFQGVEPSAIAALTKQLQPVDFPRGHTVFAEGEPGDRLYIIISGKVKIGRRAPDGRENLLTIMGPSDMFGELSIFDPGPRTSSATTITEVRAVSMDRDALRSWIADRPEISEQLLRVLARRLRRTNNNLADLIFTDVPGRVAKQLLQLAQRFGTQEGGALRVTHDLTQEEIAQLVGASRETVNKALADFAHRGWIRLEGKSVLISDSERLARRAR
Regarding B1, the stoichiometry N turned out to be 2.

Source of the values: paper PMC2844151.
